B1: anti-K88 monoclonal IgG1 antibody 36/41 purified from hybridoma cells (antibody)
chain 1: EVQLQQSGPELVKTGASVKISCKASDYSLTDYYMHWVKQSHGESLEWIGYINFYNGATNYNQKFKGKATFTVDTSSSTVYMQFNSLTSEDSAVYYCVREALLRNYAMDYWGQGTSVTVSSAKTTPPSVYPLAPGSAAQTNSMVTLGCLVKGYFPEPVTVTWNSGSLSSGVHTFPAVLQSDLYTLSSSVTVPSSTWPSETVTCNVAHPASSTKVDKKIVPRDCGCKPCICTVPEVSSVFIFPPKPKDVLTITLTPKVTCVVVDISKDDPEVQFSWFVDDVEVHTAQTQPREEQFNSTFRSVSELPIMHQDWLNGKEFKCRVNSAAFPAPIEKTISKTKGRPKAPQVYTIPPPKEQMAKDKVSLTCMITDFFPEDITVEWQWNGQPAENYKNTQPIMDTDGSYFVYSKLNVQKSNWEAGNTFTCSVLHEGLHNHHTEKSLSHSPGK
chain 2: ENVLTQSPAIMSASPGEKVTMTCRASSSVSSRYLHWYQQKSGASPKLWIYSTSNLASGVPARFSGSGSGTSYSLTISSVEAEDAATYYCQQYSGYPWTFGGGTKLEIKRADAAPTVSIFPPSSEQLTSGGASVVCFLNNFYPKDINVKWKIDGSERQNGVLNSWTDQDSKDSTYSMSSTLTLTKDEYERHNSYTCEATHKTSTSPIVKSFNRNEC
B2: plant-produced anti-K88 antibody 36/41 with ER retention signal (corn, pTMR554) (antibody)
chain 1: EVQLQQSGPELVKTGASVKISCKASDYSLTDYYMHWVKQSHGESLEWIGYINFYNGATNYNQKFKGKATFTVDTSSSTVYMQFNSLTSEDSAVYYCVREALLRNYAMDYWGQGTSVTVSSAKTTPPSVYPLAPGSAAQTNSMVTLGCLVKGYFPEPVTVTWNSGSLSSGVHTFPAVLQSDLYTLSSSVTVPSSTWPSETVTCNVAHPASSTKVDKKIVPRDCGCKPCICTVPEVSSVFIFPPKPKDVLTITLTPKVTCVVVDISKDDPEVQFSWFVDDVEVHTAQTQPREEQFNSTFRSVSELPIMHQDWLNGKEFKCRVNSAAFPAPIEKTISKTKGRPKAPQVYTIPPPKEQMAKDKVSLTCMITDFFPEDITVEWQWNGQPAENYKNTQPIMDTDGSYFVYSKLNVQKSNWEAGNTFTCSVLHEGLHNHHTEKSLSHSPGKSEKDEL
chain 2: ENVLTQSPAIMSASPGEKVTMTCRASSSVSSRYLHWYQQKSGASPKLWIYSTSNLASGVPARFSGSGSGTSYSLTISSVEAEDAATYYCQQYSGYPWTFGGGTKLEIKRADAAPTVSIFPPSSEQLTSGGASVVCFLNNFYPKDINVKWKIDGSERQNGVLNSWTDQDSKDSTYSMSSTLTLTKDEYERHNSYTCEATHKTSTSPIVKSFNRNECSEKDEL

Biological target: T1, K88 pilus protein antigen (also known as the F4 fimbriae adhesin) (Escherichia coli (enterotoxigenic))
T1 construct: Used as ELISA coat and as the ligand amine-coupled to the CM5 SPR chip; also called K88 antigen; K88 pili
T1 sequence (P14190 22-283): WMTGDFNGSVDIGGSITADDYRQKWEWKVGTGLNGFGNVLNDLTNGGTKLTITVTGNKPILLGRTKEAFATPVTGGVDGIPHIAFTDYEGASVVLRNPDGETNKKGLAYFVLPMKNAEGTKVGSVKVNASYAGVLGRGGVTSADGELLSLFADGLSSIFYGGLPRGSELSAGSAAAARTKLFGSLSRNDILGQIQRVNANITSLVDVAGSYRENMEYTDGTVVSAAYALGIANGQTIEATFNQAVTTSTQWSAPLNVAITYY
Assay: SPR (Biacore), K88 pili coupled to a CM5 chip, purified antibody as analyte

Binder | Kd [nM]
B1 | 0.03
B2 | 0.03

Reference: patent WO2004074491A2 (dated 2004)
